In the DeepSol protein solubility set:

assay: soluble on expression in E. coli; label from the status in PepcDB or PDB records

Soluble on expression in E. coli, not soluble:
MGSDKIHHHHHHMRWFSLATAFLWGYYGFDNFGDELMFKACVNLLRELGFGTIYTPLPKGKKSMGVTSVDRYSIKLLSLLKKSQVSIAGGGGLFQDVTSLRSLLYYYSISKASLLMDKPLIFFGNSVGPLRRRLSKKLVWDVFKDKRTVFIARDPASYRYVKMVGGNAVLGTDPAIIHLMESDMEKKTEKKAVFFLKSPMDVSYILKSLRDQGINDFVISTAFPGDHSYLPPLRNGENLLEEIVSSSIVITERFHPALVAAYFEIPFIIVDCQKARRFFARYTKEDHFFSKRDPLEISLKVPVVLKKELKLKEKMKNDAIEMKEMLKGVLKGW, MGSDKIHHHHHHMSAFWPFRLTTGCNVNLKFLETFIWVAKLRSFSLAADKLHSTQAAISSRISVLEQELGAKLFTREPKGVALTRAGERVLQHAEQVNESMTRLYASLQDEKFAFGTIRIGAMDSAIHSWFVNFVSDVMHYYPNLDIEVTSETALNLNEQLRRGMLDMVIQTDMLRDETIRSIEVLELSMGWVAAANSPIVSQEAYDTPTAALRGLGRERLITYSRHSRPHQDLLRLMQSYGIGESRVSCVNSVAAMIQLTQAGFGVAAMPPALVPELLNSGVLRQLEGLEAPPPLPFVIAWRSGTNWTERLVEVAVETVSKYAARLGQDAARLVV, MGSDKIHHHHHHMSAIPIIDIPFDKRHTCWFCGEPCNQHFEYHSQTHTPHPSLAVPACSECAKLAKQHPLTSIWDCRMAVKDALMRIYAKHLAIGINWTEAELAESDFSCNIFEGFKKSAWMMYQIARDRINAPGWPLRLEEIEIDDQGYSAGFEFDGVTYTSVHAAIHYYSTQFTLDPTFFADLVRLVGRARFNYALRLARIHIASAKEMKRQVLTDLEAELI, MGSDKIHHHHHHMSAQIIQLHTEAPAASVAQSPRKPTKAEKAIIADYVQDLIRRGFCKITDKSAKETRLFNRFDGEPQTLSYLRENFTEWLDDNGKECEFFCERYFIRRLKHIVGRVFKPNAPEFTQSPITGYRYANTYRRYEPTVDSADLPSCFHAYFERMFPAKHQRHIVLQWLAHIFRRPDQRPSWHLMLLSEPGTGKGFLVQNILQPLLHHTSVVASYSRITGKHSAVLVENLVILLDDCKSRSEATQTEMKSFLSEERALVERKYASAGMEDTYARMILASNEEIPLYVDPNERRWYIPDDVVHLVDLRETQANIIQPLADWLDEPGSLCKVYNWFMQYPLDGFNHKSVPESEGLTRLIDKSKGPYRQYIEDYVKDNKVFTYADLVESMTDAKLSKPSDRELGHVLREIGYEATQRRIDGVRLRLCHPVGMSLQDIRAAYSASPTDPNTPF, MGSDKIHHHHHHMSASLILTLSCEDKPGIVARVTGNLFEAGGNIREAQQFDDPLSGRFFMRVVFDPAEGSVEHYRAAFAAVADHYAMEWNLRDTTVKRKVILMVSKFDHCLGDLLYRTRIGELPMDVVAILGNHPKEALNISLIGDIPYHHLPITKDTKPQQEAEVKRIVTETGAELVVLARYMQILSDDLAAFLSGRCINIHHSFLPSFKGAKPYHQAHARGVKMIGATGHYVTADLDEGPIIHQDVETVTHADSPDDLVRKGRDVERRVLAEAVRLHLEDRALVNGNKTVVFKS, MGSDKIHHHHHHMSAVLYSNLKFLRFKDQLDALAGGTVAPPVHIRIKPTNRCNHKCWYCAYRTDDLKLGEDMDESDLIPEAKMMEIADDIVAMGVKAVTFSGGGEPLLYKPLPEVIDRLAAGGVRVATLTNGANLKGKVAQSLARHATWVRVSVDAWDDDSYVSSRGAKAGEFTKLLENMKAFVETGTKCVLGVSFIAGKDNYHRLSEVCARFKAIGVNHVKLSAAVVGNSVDENNRYHREFAEGARAEIERAKALSGDGFSVLDHFHEMESRFEKDYHRCPFLQFLTVIGADQTVYTCQDKAYTKEGTLGSIRGRSFRDYWFSEENRQRMAEFDPSRLCRHHCVSHSKNQAIMQYLSIDSEHGLFV, MGSDKIHHHHHHMSDIHKKIKKKQFAPLYLLYGTEAFFINETIKLITTEALEEEDREFNVVTYDLEEAYLEDVVEDARTLPFFGERKVLLIKSPLFLTSQKEKLEQNIKILEEYIGEPSPFSILVFVAPYEKLDERKKITKLLKKTADVVEANAMQVQDVQKWIVARADEVHVHIDHAAVSLLLELVGSNVTMLAKEMDKLTLYVGMGGDITPKLVAELVPKSVEQNVFALTEKVVKKDIAGAMQILDGLFTQQEEPIKLLALLVSQFRLLHQVKELQQRGYGQNQIASHIGVHPYRVKLAMNQTKFFSFEELKKVIMELAEADYSMKTGKMDKKLVLEFFLMRLNHM, MGSDKIHHHHHHMSDKFGEGRDPYLYPGLDIMRNRLNIRQQQRLEQAAYEMTALRAATIELGPLVRGLPHLRTIHRQLYQDIFDWAGQLREVDIYQGDTPFCHFAYIEKEGNALMQDLEEEGYLVGLEKAKFVERLAHYYCEINVLHPFRVGSGLAQRIFFEQLAIHAGYQLSWQGIEKEAWNQANQSGAMGDLTALQMIFSKVVSEAGESE, MGSDKIHHHHHHMSDVDTHPIDRGAGGHNPQKPIRVAQIVGKMVGGGVEAVVMNYYRHIDRSKVQFDFLVDEDSTRVPEEEITSLGGRVFRIPPYQHPIRYRRELIRLMREQQWPIVHSNINTLSVFPLSAAKKVGVPVRIAHSHSTMGKGEFAKNVMKLVLRPFANVYPTVRFACSRYAGKWLFGKNADFTVIPNAIELDKFRFNTEMRKQTRKELGISDDTFLIGHVGRFMPQKNQTFLVDVLAGLLPKRPDAMLAFVGDGPDRTAVQQHVEELGMADHVLFLGQRSDVNRLYQAFDAFCLPSLYEGLGIVAVEAQVADLPCLLSDVVPSEADVTASSYFLQITDVKPWIETLSNLHSSKRSDQISGDIEEYDIQRCANSLVKKYESFICK, MGSDKIHHHHHHMSEDLLNSFQEAYSNLELFPLMERNEMERFRVEYGDDLIADLNQLVEDSPNGDGKIVFTGHRGCGKSTLLAEFSRQIQDKYFVVLFSIADKIEMSAVNHINILFAIAVNLMTEAEARKVDIPQSTKEALYKWFATRTRTEESNLQAEVSIGFDLLKLISSKLKADASVRDEIKQEFERKLSDLVARINEIAALIQAATKQNVLVIIDDLDKLDLGRVNEIYRDNIKALCQPNFQIIYTIPIAVLRETFISTIIATETNDQVVAMPVLKIFDKGKNRFPNAQPRREATKILGEVLQKRIPNELIAAETAEKIVIYSGGVLRELIRISKECCRICLRTIRRNPSAEVIIDDKILLQAINKIRNDFSIRLGKTDIDILQSVYEQFMPNDPKQAEFLDLLHGLYVLEYRTDETWYDVHPIIIESLKRQGAINVK, MGSDKIHHHHHHMSEKSASNNKAEFKRQSSPFREIISADHPIYKPAKGRYWLYVALPCPWAQRTLITRALKGLAPIIGCSVAHWHLDDKGWRFLEEGDGKTNERHWFDIAGGISSVNLNTSTPVANIPNNAHRLLVDGTDEPHYGYKRLSDFYFKTKPDYKGRFTVPVLWDLETCTIVNNESSDIIGIMNSAAFDEFVGEEYRQVRLVPRSLEAQITEFNSWVYDKINNGVYKAGFAECAEVYEREVTSLFQYLDKLENLLDKKYTDLEAEYGKNNKDKILDRYFAIGDTLTEADVRLYPTIVRFDVVYHQHFKCNLATIRDDYSRIHTWLKNIYWRHEAFQRTTDFTHIKLGYTRSQPRVNPIGITPLGPKPDIRPP, MGSDKIHHHHHHMSELPNSHATTLLAAPDTEIDVRETFGIDIDMKVPAFSRADERVPDRDDTYVFDPDTTLAILAGFAYNRRVMVQGYHGTGKSTHIEQVAARLNWPCIRINLDAHISRIDLVGRDAIVLRDGLQVTEFREGLLPWALQTPTALVFDEYDAGRPDVMFVIQRVLETEGKLTLLDQNRVIRPNKFFRLFATANTVGLGDTSGLYHGTQAINQGQMDRWNLVVALNYLPEATEVEIVTKKVPDLDPKIVTDMVRVANLTRQGFINGDISTVMSPRTVISWAQNSQIFNDVGFAFRLSFLNKCDETERVLVAEYYQRVFGKDLPESVAHRG, MGSDKIHHHHHHMSEMMIVAVTGGKGGTGKSTLSANLFFYFIENYKTALIDCDVETPNLPYLTGCEDLFLAREVFIEVPNIEEGKTYNYNNVCKEGALLKVGDKLIFIEDLCSGCKACGINSNITFKKKSIGKIYEKKFDNGYLIVGKSNLGERKTAKIVTETKKYGLSKNCEINIVDTAAGTHCNVVRALINADKVLIVTEPTPFGVSDAKRIIKVVEKLNIPYKIVLNRYGISDLKIGYNFKIPYDKRIVECYCKGESFLKYNDLRNYIEEIANWIIWG, MGSDKIHHHHHHMSEPIIISIHNYKSAGVTFYSIIDRQFKKDEILNSDLLGMDDTYLMLSQADEKIINKIKIIHGHFPFGLDRLLPQKSTYITFLRNPIERLISDYYYCKDFALAHNHSYASTMSFKEYLSCSDILNIDNGQTRFVAGGENVPYGDNSIEMLNRAIENIEKRFSFVGITEKFDESLLIANAVFSWNQYYYTSKNITSSKSYDFDEETWELLRKRNFLDLQLYEYALKKHAGDLKKIPYVKLKMILLKTLKSLFVVTKSIYAPVKKRFFR, MGSDKIHHHHHHMSEQVRSLSEFTAEVEAMTAAMMTEEPQEIASMRCGEMENTAGSYGQYFGTWDIAHGMLRDYSMYTLYPITALAEDAEMDLTSLSKTVDALDPAYSNYLRYSGFPRMGKLAVELRGLIRASTSRSDIVAALRAFTAYTNRLQAWSFHYFPWGLGKHFRYDEARLQDAPLPVADLGATRACITCGQRIRISWEPLGITVNATLASEENPELCADVVAALPFTVIQDHAVVTGESMYAWTPVLSTAPIHLRERICDAPVGRLRYSQSTGQKFIVQYGPTTEDLSQPVLGEIDAADAGKLEQVGRAVWDSTFDNKQLIWMTVELA, MGSDKIHHHHHHMSESAIADFVSSFIPDTATHVEPVRGRVVMSKRRIVLAADDEKTTIPLNGVFDVQHETAPGDLARFFEDTVTIAYEHDEDRHVAVIEGGGSTVDRFVTLVFKALVHGTTVYAKHPARRGGRITDQPFEKGNLALSPGDLTITGDADTTIDLSTVSHFERVDREVNGSNKQLLSVRHMGSTGPITTELALSSGRKMNLLGRYIRLQYTHLKQELADVTLTSEEIEALVAIYSSGPNASLAAVLGVDASRVTMLLNDLIEKELVTDDDGIALTSLGRAAVSEHIEDVNL, MGSDKIHHHHHHMSFSNEDRDVFIIKTDRMIDRGALMSRYSRASDPDIRSVFHREFEGNQKRSEDFYRRIFLEYGDESIAELVTAQVGIQNVSNVISKVIEEIRIGLSYLEKSTRYVAYDRKVDGHYLFMQAEKIGLSGEAAREYTDLCNRLFDLYSSTLPRIEEEISRQWPIESFDFNIDGNPRNYKELDENGRKLAQKSYRSSVRSRALDDARFILPASTLTNMGVSGNGRSFIHLIQKLMEYGVPESERLAHDLYEELKGEFPQIIDDALSQHGQDIINYKRSLASLFPYTDGGRFEKVRLIKYSNEREEMQKVLALLMYPFAEDASGIISRIKAMELSEASAILERIRDLRKNRRMKVGRPFEAVNYVFEVTTNYGAFRDLQRHRFLSIVRKPLTVSYGFDVPPIIAKMPDLSEEYAEAMKDAERVYRIIKERYGAWIAQYAVPFAYRYPVVFTTNLAEATYFIELRSTPQAHFDLRDIAIRMYNEIKSVHPSLAGIIKFVDTGDYPLGRLSAEVRKNVKAGGI, MGSDKIHHHHHHMSGKLTVITGPMYSGKTTELLSFVEIYKLGKKKVAVFKPKIDSRYHSTMIVSHSGNGVEAHVIERPEEMRKYIEEDTRGVFIDEVQFFNPSLFEVVKDLLDRGIDVFCAGLDLTHKQNPFETTALLLSLADTVIKKKAVCHRCGEYNATLTLKVAGGEEEIDVGGQEKYIAVCRDCYNTLKKRV
